Values of other authors, collected in US10131637B2, “Anti-PCSK9 compounds and methods for the treatment and/or prevention of cardiovascular diseases” (Shifa Biomedical Corporation, priority 2013, dated 2018).

Molecular target: T1, PCSK9 (Homo sapiens, UniProt Q8NBP7)
T1 construct: slashed LDL levels by more than 60% in clinical trial; host or cells: patients in a clinical trial (endogenous circulating PCSK9)
Details: single injection, clinical trial

In the case of “REGN727: Regeneron/Sanofi monoclonal antibody blocking PCSK9”, the “reduction of LDL levels” value is given as “more than 60%”.
